Publication PMC3143072, “DNA binding activities of the Herves transposase from the mosquito Anopheles gambiae”

How the values were obtained:
Herves transposase [1] = target: T1, Herves transposase (Anopheles gambiae, UniProt Q5QIT5 1-603); experiment: EMSA; three complexes; competed by unlabeled bp 1-100; EMSA: 16 mM Tris pH 8.0, 150 mM NaCl, 1 mM DTT, 0.25% Triton X, 0.2 ug BSA, 0.4 ug T3 ss oligo, 0.5 ug poly(dI-dC), 4 C; 100 nM DNA, 850 nM transposase; same binding conditions for DNase I; settings: protein: recombinant; tags: His tag (pBAD myc/HisA vector); label: 32P
T1 sequence: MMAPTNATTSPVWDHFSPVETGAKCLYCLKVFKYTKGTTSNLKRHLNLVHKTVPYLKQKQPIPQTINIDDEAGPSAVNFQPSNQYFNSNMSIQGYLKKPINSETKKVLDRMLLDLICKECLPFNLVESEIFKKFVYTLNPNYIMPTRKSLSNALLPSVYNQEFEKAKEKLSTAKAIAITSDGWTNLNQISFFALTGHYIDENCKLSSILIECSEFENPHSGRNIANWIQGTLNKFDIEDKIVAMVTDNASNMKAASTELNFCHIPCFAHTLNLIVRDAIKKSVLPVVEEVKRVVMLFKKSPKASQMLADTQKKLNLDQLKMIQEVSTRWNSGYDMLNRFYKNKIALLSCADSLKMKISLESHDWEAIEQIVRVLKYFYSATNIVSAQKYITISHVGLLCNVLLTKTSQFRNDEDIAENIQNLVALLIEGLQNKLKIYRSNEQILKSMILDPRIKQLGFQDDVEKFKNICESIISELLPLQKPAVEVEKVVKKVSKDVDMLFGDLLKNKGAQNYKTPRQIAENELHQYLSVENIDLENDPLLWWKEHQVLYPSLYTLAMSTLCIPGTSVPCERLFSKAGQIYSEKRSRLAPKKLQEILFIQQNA

Herves transposase [2] = target: T1, Herves transposase; experiment: EMSA; EMSA: 16 mM Tris pH 8.0, 150 mM NaCl, 1 mM DTT, 0.25% Triton X, 0.2 ug BSA, 0.4 ug T3 ss oligo, 0.5 ug poly(dI-dC), 4 C; 100 nM DNA, 850 nM transposase; same binding conditions for DNase I; settings: protein: recombinant; tags: His tag (pBAD myc/HisA vector); label: 32P as probe
Herves transposase [3] = target: T1, Herves transposase; experiment: EMSA; one complex; EMSA: 16 mM Tris pH 8.0, 150 mM NaCl, 1 mM DTT, 0.25% Triton X, 0.2 ug BSA, 0.4 ug T3 ss oligo, 0.5 ug poly(dI-dC), 4 C; 100 nM DNA, 850 nM transposase; same binding conditions for DNase I; settings: protein: recombinant; tags: His tag (pBAD myc/HisA vector); label: 32P as probe
Herves transposase [4] = target: T1, Herves transposase; experiment: competition; vs Herves-L 1-100 probe, partial compared with bp 1-100; 200-fold; EMSA: 16 mM Tris pH 8.0, 150 mM NaCl, 1 mM DTT, 0.25% Triton X, 0.2 ug BSA, 0.4 ug T3 ss oligo, 0.5 ug poly(dI-dC), 4 C; 100 nM DNA, 850 nM transposase; same binding conditions for DNase I; settings: protein: recombinant; tags: His tag (pBAD myc/HisA vector); label: 32P as probe
Herves transposase [5] = target: T1, Herves transposase; experiment: EMSA; two complexes; competed by self; EMSA: 16 mM Tris pH 8.0, 150 mM NaCl, 1 mM DTT, 0.25% Triton X, 0.2 ug BSA, 0.4 ug T3 ss oligo, 0.5 ug poly(dI-dC), 4 C; 100 nM DNA, 850 nM transposase; same binding conditions for DNase I; settings: protein: recombinant; tags: His tag (pBAD myc/HisA vector); label: 32P
Herves transposase [6] = target: T1, Herves transposase; experiment: EMSA; two complexes; EMSA: 16 mM Tris pH 8.0, 150 mM NaCl, 1 mM DTT, 0.25% Triton X, 0.2 ug BSA, 0.4 ug T3 ss oligo, 0.5 ug poly(dI-dC), 4 C; 100 nM DNA, 850 nM transposase; same binding conditions for DNase I; settings: protein: recombinant; tags: His tag (pBAD myc/HisA vector); label: 32P as probe
Herves transposase [7] = target: T1, Herves transposase; experiment: competition; vs Herves-L 1-100 probe; 200-fold; EMSA: 16 mM Tris pH 8.0, 150 mM NaCl, 1 mM DTT, 0.25% Triton X, 0.2 ug BSA, 0.4 ug T3 ss oligo, 0.5 ug poly(dI-dC), 4 C; 100 nM DNA, 850 nM transposase; same binding conditions for DNase I; settings: protein: recombinant; tags: His tag (pBAD myc/HisA vector)

B1: Herves-L bp 1-100 (dsDNA)
DNA 1: TAGAGTTGTGCCTCAAGAACCAGAACTGTACGATTCATTCAATTCATCCTAAAGAACGAATGACCTACGTTCATCTAATCAACGTTCATCGATTCTTTAT
DNA 2: ATAAAGAATCGATGAACGTTGATTAGATGAACGTAGGTCATTCGTTCTTTAGGATGAATTGAATGAATCGTACAGTTCTGGTTCTTGAGGCACAACTCTA
B1: binds (Herves transposase [1]).

B2: Herves-R bp 46-75 (dsDNA)
DNA 1: GTTCTTTCATTAACATGAACTGAGCGTGAA
DNA 2: TTCACGCTCAGTTCATGTTAATGAAAGAAC
B2: no binding (Herves transposase [2]).

B3: Herves-R bp 61-90 (dsDNA)
DNA 1: TGAACTGAGCGTGAATCGCGATTCAATCGT
DNA 2: ACGATTGAATCGCGATTCACGCTCAGTTCA
B3: binds (Herves transposase [3]).

B4: Herves-L bp 28-60 (dsDNA)
DNA 1: GTACGATTCATTCAATTCATCCTAAAGAACGAA
DNA 2: TTCGTTCTTTAGGATGAATTGAATGAATCGTAC
B4: binds (Herves transposase [4]).

B5: Herves-R bp 1-100 (dsDNA)
DNA 1: TTGACGTGAACGATTGAATCGCGATTCACGCTCAGTTCATGTTAATGAAAGAACCGGTAAATTCACGTTCATGGTAATGAATCGAATTGCCCAACCCTA
DNA 2: TAGGGTTGGGCAATTCGATTCATTACCATGAACGTGAATTTACCGGTTCTTTCATTAACATGAACTGAGCGTGAATCGCGATTCAATCGTTCACGTCAA
B5: binds (Herves transposase [5]).

B6: (CGATTCAT)4 (dsDNA)
DNA 1: CGATTCATCGATTCATCGATTCATCGATTCAT
DNA 2: ATGAATCGATGAATCGATGAATCGATGAATCG
B6: binds (Herves transposase [6]).

B7: Herves-R bp 15-45 (dsDNA)
DNA 1: TCGATTCATTACCATGAACGTGAATTTACCG
DNA 2: CGGTAAATTCACGTTCATGGTAATGAATCGA
B7: binds (Herves transposase [3]).

B8: Herves-L bp 1-30 (dsDNA)
DNA 1: TAGAGTTGTGCCTCAAGAACCAGAACTGTA
DNA 2: TACAGTTCTGGTTCTTGAGGCACAACTCTA
B8: no binding (Herves transposase [7]).

B9: Herves-L bp 12-48 (dsDNA)
DNA 1: CTCAAGAACCAGAACTGTACGATTCATTCAATTCATC
DNA 2: GATGAATTGAATGAATCGTACAGTTCTGGTTCTTGAG
B9: binds (Herves transposase [6]).

B10: Herves-R bp 1-30 (dsDNA)
DNA 1: TAGGGTTGGGCAATTCGATTCATTACCATG
DNA 2: CATGGTAATGAATCGAATTGCCCAACCCTA
B10: binds (Herves transposase [6]).
